Tests used:
Conditions in all cases: protein: commercial; label: none; single strand
lactoferrin (LF) [1] = target: T1, lactoferrin (LF) (bovine (milk), UniProt P24627 20-708); assay: RIFTS (porous Si interferometry); cell setup, selection buffer, Tris-passivated, 1 mM Mg2+; apparent; Selection buffer: PBS (137 mM NaCl, 10 mM Na2HPO4, 2.7 mM KCl, 2 mM KH2PO4) + 1 mM MgCl2, pH 7.4, room temperature; GI fluid at 37 C
lactoferrin (LF) [2] = target: T1, lactoferrin (LF); assay: RIFTS (porous Si interferometry); plain microchannel, 30 ul/min; Selection buffer: PBS (137 mM NaCl, 10 mM Na2HPO4, 2.7 mM KCl, 2 mM KH2PO4) + 1 mM MgCl2, pH 7.4, room temperature; GI fluid at 37 C
lactoferrin (LF) [3] = target: T1, lactoferrin (LF); assay: RIFTS (porous Si interferometry); SHM (herringbone) microchannel, 30 ul/min; Selection buffer: PBS (137 mM NaCl, 10 mM Na2HPO4, 2.7 mM KCl, 2 mM KH2PO4) + 1 mM MgCl2, pH 7.4, room temperature; GI fluid at 37 C
lactoferrin (LF) [4] = target: T1, lactoferrin (LF); assay: RIFTS (porous Si interferometry); impeller-integrated microchannel, 30 ul/min; Selection buffer: PBS (137 mM NaCl, 10 mM Na2HPO4, 2.7 mM KCl, 2 mM KH2PO4) + 1 mM MgCl2, pH 7.4, room temperature; GI fluid at 37 C
lactoferrin (LF) [5] = target: T1, lactoferrin (LF); assay: RIFTS (porous Si interferometry); PEG-passivated, LF-spiked porcine GI fluid, 37 C; apparent, LOD 600 nM suggests uM; Selection buffer: PBS (137 mM NaCl, 10 mM Na2HPO4, 2.7 mM KCl, 2 mM KH2PO4) + 1 mM MgCl2, pH 7.4, room temperature; GI fluid at 37 C

T1 sequence (P24627 20-708): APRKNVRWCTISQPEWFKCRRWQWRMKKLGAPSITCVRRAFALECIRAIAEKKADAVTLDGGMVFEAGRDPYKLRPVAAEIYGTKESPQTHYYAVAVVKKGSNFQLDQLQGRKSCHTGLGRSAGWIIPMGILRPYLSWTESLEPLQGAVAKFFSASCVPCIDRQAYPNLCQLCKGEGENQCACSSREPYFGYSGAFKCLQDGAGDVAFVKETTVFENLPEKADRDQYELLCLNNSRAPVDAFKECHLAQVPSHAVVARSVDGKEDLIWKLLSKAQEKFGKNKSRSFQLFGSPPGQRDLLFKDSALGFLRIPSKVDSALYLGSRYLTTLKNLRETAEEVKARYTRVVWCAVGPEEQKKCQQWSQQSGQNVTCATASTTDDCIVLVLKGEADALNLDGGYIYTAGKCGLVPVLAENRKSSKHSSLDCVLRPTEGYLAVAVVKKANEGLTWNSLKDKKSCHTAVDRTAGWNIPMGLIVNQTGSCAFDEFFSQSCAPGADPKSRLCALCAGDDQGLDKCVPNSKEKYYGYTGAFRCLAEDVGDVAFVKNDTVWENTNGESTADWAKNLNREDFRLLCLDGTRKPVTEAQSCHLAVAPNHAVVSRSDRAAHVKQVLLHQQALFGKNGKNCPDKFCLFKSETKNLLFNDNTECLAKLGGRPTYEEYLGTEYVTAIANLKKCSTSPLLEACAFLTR

B1: Lac 9-2 anti-LF aptamer with T10 spacer (ssDNA)
DNA: CAGGCAGGACACCGTAACCGGTGCATCTATGGCTACTAGCTCTTCCTGCCTATTTTTTTTTT
modifications: 3'-amino, coupled via NHS/EDC to carboxylated porous Si
B1 showed a Kd (lactoferrin (LF) [1]) of 2100 ± 900 nM, a Kd (lactoferrin (LF) [2]) of 2000 ± 1000 nM and a Kd (lactoferrin (LF) [3]) of 1600 ± 600 nM. The Kd (lactoferrin (LF) [4]) was 1300 ± 600 nM and the Kd (lactoferrin (LF) [5]) was 11.8 ± 1.9 nM.

From publication PMC11252414, “Enhancing the performance of porous silicon biosensors: the interplay of nanostructure design and microfluidic integration”
